Experimental findings from the Human Domainome abundance scans (Beltran et al. 2025) are described below.

± gives the uncertainty stated by the source.

B1: SWI/SNF-related matrix-associated actin-dependent regulator of chromatin subfamily B member 1, residues 181 to 248; numbered along this chain, Q12824 (parent)
chain: SQPEVLVPIRLDMEIDGQKLRDAFTWNMNEKLMTPEMFSEILCDDLDLNPLTFVPAIASAIRQQIESY

The variants in this data set derive from B1. Nature of the data set: abundance fitness (aPCA) (normalised: wild type 0, dead -1); higher = more abundant; growth selection in yeast, the domain comes from the species named. Conditions: Homo sapiens.
As to N27T, the abundance fitness was -0.552 ± 0.3.

As for N27W, the abundance fitness is -0.909 ± 0.25. On to Q18K, for which the abundance fitness is -0.234 ± 0.26. Then Q18V, with 0.107 ± 0.083. Consider Q18A, for which the abundance fitness is -0.311 ± 0.069. The figure for Q18L is -0.297 ± 0.16; for Q18W it is 0.158 ± 0.21.

Turning to Q18H, the abundance fitness is -0.136 ± 0.33. The figure for C43R is -0.831 ± 0.1; for C43V it is -0.249 ± 0.035; for C43T it is -0.971 ± 0.18. Take C43E: the abundance fitness is -1.02 ± 0.35. In the case of C43A, the abundance fitness is -0.467 ± 0.099.

C43K: the abundance fitness was -0.613 ± 0.11.

On to C43Y, for which the abundance fitness is -0.662 ± 0.1.

As to P3H, the abundance fitness was -0.097 ± 0.15. Consider P3R, for which the abundance fitness worked out at 0.161 ± 0.038.

As to P3Q, the abundance fitness was found to be 0.178 ± 0.061. Take P3Y: the abundance fitness stood at 0.002 ± 0.092. As for P3K, the abundance fitness was 0.289 ± 0.09.

Turning to P3L, the abundance fitness amounted to 0.003 ± 0.064.

With P3W, the abundance fitness is -0.186 ± 0.073.

Regarding P3I, the abundance fitness is -0.245 ± 0.35. For the variant P3A, the abundance fitness was 0.02 ± 0.067. For the variant P3M, the abundance fitness amounted to 0.006 ± 0.085. Consider L11A, for which the abundance fitness is -0.792 ± 0.38. With L11P, the abundance fitness was -0.578 ± 0.42. As to L11C, the abundance fitness is -0.848 ± 0.33. As for L11V, the abundance fitness was -0.624 ± 0.24. Take L11S: the abundance fitness was -0.751 ± 0.37. On to L11F, for which the abundance fitness is -0.215 ± 0.18. With D12F, the abundance fitness is -0.73 ± 0.24.

For the variant D12V, the abundance fitness was -0.646 ± 0.41. With D12S, the abundance fitness is -0.474 ± 0.21. The figure for L48P is -0.873 ± 0.18; for L48H it is -0.722 ± 0.18. For the variant L48D, the abundance fitness was -0.785 ± 0.2. Regarding L48Y, the abundance fitness is -0.649 ± 0.21.

For L48S, the abundance fitness was -0.659 ± 0.072. With L48A, the abundance fitness was -0.857 ± 0.1. In the case of L48C, the abundance fitness is -0.374 ± 0.079. For L48R, the abundance fitness was -0.989 ± 0.21.

For the variant Q2P, the abundance fitness was -0.079 ± 0.41. A60V: the abundance fitness is -0.286 ± 0.047. The figure for A60E is 0.085 ± 0.089; for A60N it is -0.28 ± 0.092. On to A60G, for which the abundance fitness is -0.528 ± 0.078. In the case of A60T, the abundance fitness was -0.081 ± 0.043. As to S1I, the abundance fitness turned out to be 0.238 ± 0.3.

As to S1R, the abundance fitness is -0.307 ± 0.09. The figure for S1T is -0.09 ± 0.066. Then S1G, with -0.061 ± 0.059. The figure for S1W is -0.435 ± 0.074; for S1L it is -0.021 ± 0.049. As for S1M, the abundance fitness was determined as 0.127 ± 0.071. S1V: the abundance fitness is -0.048 ± 0.094. S1Y: the abundance fitness came to 0.088 ± 0.11. Consider S1C, for which the abundance fitness is -0.095 ± 0.067.

As to S1P, the abundance fitness was -0.109 ± 0.083. S1D: the abundance fitness is -0.123 ± 0.27.

For N29D, the abundance fitness is -0.212 ± 0.24. As to N29S, the abundance fitness was -0.136 ± 0.28. Consider N29V, for which the abundance fitness is -0.727 ± 0.21. As for N29K, the abundance fitness was -0.286 ± 0.096. Then N29G, with -0.244 ± 0.087; and S39P, with -0.685 ± 0.38. As for T34E, the abundance fitness is -0.388 ± 0.49. The figure for T34W is -0.615 ± 0.41; for T34P it is -0.454 ± 0.38. Then T34Q, with -0.881 ± 0.39; and T34G, with -0.686 ± 0.25; and I15E, with -0.765 ± 0.18.

As for I15H, the abundance fitness is -0.625 ± 0.28. In the case of I15C, the abundance fitness was -0.702 ± 0.19. On to I15A, for which the abundance fitness was -0.917 ± 0.23. With I15L, the abundance fitness was found to be 0.01 ± 0.12. On to I15F, for which the abundance fitness was -0.282 ± 0.19. Turning to I15K, the abundance fitness was -0.982 ± 0.47. Regarding Y68I, the abundance fitness was -0.541 ± 0.14. As to Y68V, the abundance fitness is -0.373 ± 0.11. Y68N: the abundance fitness was -0.384 ± 0.22. For Y68G, the abundance fitness is -0.661 ± 0.13. For the variant Y68S, the abundance fitness is -0.427 ± 0.069. As to L46Q, the abundance fitness is -0.162 ± 0.064.

As for L46P, the abundance fitness was -1.08 ± 0.23. Then L46N, with -0.271 ± 0.17; and L46M, with 0.05 ± 0.21; and L46T, with -0.954 ± 0.24. Consider L46A, for which the abundance fitness was -0.125 ± 0.051. The figure for L46R is 0.161 ± 0.046; for L46S it is -0.694 ± 0.1. As for L46F, the abundance fitness was -0.091 ± 0.09. Then L46Y, with -0.038 ± 0.099; and L46C, with -0.231 ± 0.2. For the variant K31C, the abundance fitness was -0.391 ± 0.095. Then K31W, with -0.533 ± 0.1; and K31A, with 0.031 ± 0.077; and K31H, with -0.169 ± 0.078. Take K31D: the abundance fitness worked out at 0.018 ± 0.17. As for A56Y, the abundance fitness was -0.421 ± 0.092. As for A56F, the abundance fitness was -0.623 ± 0.16.

For A56H, the abundance fitness is -0.123 ± 0.081. Turning to A56N, the abundance fitness was -0.654 ± 0.19.

For the variant M13R, the abundance fitness was -0.703 ± 0.23. Take M13L: the abundance fitness is -0.089 ± 0.22. As to M13D, the abundance fitness was -0.944 ± 0.44. The figure for K19C is 0.128 ± 0.11; for A23M it is 0.048 ± 0.067; for A23E it is 0.221 ± 0.076.

Consider A23G, for which the abundance fitness was -0.291 ± 0.038.

In the case of A23W, the abundance fitness is -0.144 ± 0.039. Consider A23P, for which the abundance fitness is -0.599 ± 0.28. Then D47K, with 0.093 ± 0.063; and D47M, with -0.265 ± 0.05. With D47V, the abundance fitness was -0.542 ± 0.073.

D47C: the abundance fitness is -0.305 ± 0.057. D47N: the abundance fitness was -0.107 ± 0.069. For the variant D47P, the abundance fitness is -0.799 ± 0.16. The figure for A58S is -0.072 ± 0.17; for D44L it is -0.251 ± 0.11. As to D44M, the abundance fitness was -0.473 ± 0.26.

For D44S, the abundance fitness was 0.043 ± 0.1.

As for D44G, the abundance fitness is -0.276 ± 0.16. As for D44E, the abundance fitness was found to be 0.309 ± 0.22.

Turning to D44H, the abundance fitness is 0.258 ± 0.17. Regarding I9G, the abundance fitness is -0.762 ± 0.18. On to I9A, for which the abundance fitness was -0.784 ± 0.11. The figure for Q64L is -0.52 ± 0.056.

Regarding Q64R, the abundance fitness was -0.709 ± 0.061. As for Q64C, the abundance fitness was -0.863 ± 0.12. For the variant Q64I, the abundance fitness was -0.898 ± 0.11. As for Q64H, the abundance fitness is -0.741 ± 0.12. Regarding Q64D, the abundance fitness is -1.22 ± 0.4. Q64P: the abundance fitness was -0.878 ± 0.12.

In the case of Q64M, the abundance fitness is -0.904 ± 0.18. Regarding Q64S, the abundance fitness is -0.563 ± 0.052. Then D22N, with 0.005 ± 0.25. As for D22C, the abundance fitness is 0.035 ± 0.096. With D22V, the abundance fitness was -0.037 ± 0.16.

For the variant D22M, the abundance fitness was -0.277 ± 0.4. Then D22Q, with 0.052 ± 0.24. As for D22G, the abundance fitness was -0.418 ± 0.28. V54L: the abundance fitness was -0.684 ± 0.21. V54P: the abundance fitness is -0.593 ± 0.23. As for V54M, the abundance fitness was -0.335 ± 0.28.

As for V54F, the abundance fitness is -0.739 ± 0.32. As to E14M, the abundance fitness was -0.065 ± 0.11. On to E14R, for which the abundance fitness was -0.733 ± 0.14. Then E14P, with -0.937 ± 0.22. For the variant E14V, the abundance fitness was -0.199 ± 0.059. In the case of E14H, the abundance fitness was -0.202 ± 0.18. For E4W, the abundance fitness was -0.599 ± 0.1.

Regarding E4D, the abundance fitness is -0.031 ± 0.088. Consider E4M, for which the abundance fitness was -0.201 ± 0.074.

As for E4P, the abundance fitness was -0.024 ± 0.062. The figure for F38K is 0.132 ± 0.38; for F38Y it is -0.509 ± 0.49.

Take F38S: the abundance fitness was -0.809 ± 0.24. The figure for F38R is 0.11 ± 0.14; for F38W it is -0.235 ± 0.21. With Q63K, the abundance fitness was -0.067 ± 0.073.

For the variant Q63R, the abundance fitness is -0.115 ± 0.049. The figure for Q63F is -0.232 ± 0.1; for Q63W it is -0.467 ± 0.078; for Q63V it is -0.293 ± 0.043. Regarding Q63M, the abundance fitness is -0.257 ± 0.084.

Take Q63S: the abundance fitness was 0.011 ± 0.052.
